Results as given in patent publication US20210139582A1.

Columns and labels:
[1] = target: C-terminus biotinylated monomeric human CD32a^H (FcγRIIa, histidine-131 variant), recombinant (human) (UniProt P12318); assay: SPR, estimated steady state KD, monomeric IgG, pH 7.4
[2] = target: C-terminus biotinylated monomeric human CD32a^R (FcγRIIa, arginine-131 variant), recombinant (human) (UniProt P12318); assay: as above
Chain of C-terminus biotinylated monomeric human CD32a^R (FcγRIIa, arginine-131 variant), recombinant (human) (P12318 other isoform, or with tags, fused parts or gaps mutant): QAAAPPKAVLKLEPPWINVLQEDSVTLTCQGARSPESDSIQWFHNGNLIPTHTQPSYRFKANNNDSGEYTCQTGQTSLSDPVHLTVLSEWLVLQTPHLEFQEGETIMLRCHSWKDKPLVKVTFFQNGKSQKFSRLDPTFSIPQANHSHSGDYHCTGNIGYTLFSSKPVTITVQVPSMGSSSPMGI

Chain of C-terminus biotinylated monomeric human CD32a^H (FcγRIIa, histidine-131 variant), recombinant (human) (P12318 34-218 limits assumed, change not shown): as the sequence (P12318 other isoform, or with tags, fused parts or gaps mutant) above, with R134H counted along it
Chain of anti-NIP mouse IgG2a (mIgG2a^WT) (antibody) (P01863 whole entry): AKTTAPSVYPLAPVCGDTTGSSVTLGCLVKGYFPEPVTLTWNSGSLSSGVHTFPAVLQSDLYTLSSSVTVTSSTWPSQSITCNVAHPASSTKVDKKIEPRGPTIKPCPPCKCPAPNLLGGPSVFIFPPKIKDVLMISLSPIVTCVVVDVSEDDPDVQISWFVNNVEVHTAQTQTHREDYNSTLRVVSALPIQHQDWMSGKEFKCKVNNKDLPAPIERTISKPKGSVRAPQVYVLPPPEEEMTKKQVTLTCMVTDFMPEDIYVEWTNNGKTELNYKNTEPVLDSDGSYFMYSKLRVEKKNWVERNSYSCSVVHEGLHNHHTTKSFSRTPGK

Substance	Kd [1]	Kd [2]
anti-NIP chimeric IgG with wild type human IgG1 Fc and murine anti-NIP antigen-binding domain (hIgG1^WT) (antibody)	1.3 µM	2 µM
anti-NIP hIgG1-I253A/H310A/H435A (hIgG1^IHH) (from UniProt P01857 1-330) (antibody)		3.7 µM
anti-NIP hIgG1-M252Y/S254T/T256E/H433K/N434F (hIgG1^MST/HN) (from UniProt P01857 1-330) (antibody)		3.8 µM
anti-NIP hIgG2 (hIgG2^WT) (antibody)	1.4 µM	5.2 µM
anti-NIP mouse IgG1 (mIgG1^WT) (antibody)	8.1 µM	0.8 µM
anti-NIP mouse IgG2a (mIgG2a^WT) (antibody)	3.4 µM	3.6 µM
anti-NIP mouse IgG2b (mIgG2b^WT) (antibody)	5 µM	4.5 µM
